Assay results as given in patent US20220204602A1.
pKd: −log10 of the molar value.

What was measured:
[1] = biological target: Cynomolgus C5 (Cynomolgus); assay: BLI (Gator); pH 5.8
[2] = biological target: Cynomolgus C5 (Cynomolgus); assay: BLI (Gator); pH 7.4
human FcRn (human) = human FcRn (human) (UniProt P55899); assay: SPR (Biacore); pH 6.0

pKd [1]: 7.39
pKd [2]: 8.22
Ka (human FcRn (human)): 1.13e+08 M⁻¹
Substance: anti-C5 mAb/FH SCR1-5 fusion protein FMEH-IgG4PLA-FH1-5 (from UniProt P08603 19-322)
